Biological target: the molecule itself
Test: SEC

B1: CpcS-III bilin lyase from Thermosynechococcus elongatus BP-1, C-terminally His-tagged (from pTER13-21) (enzyme, UniProt Q8DI91 1-182, looked up)
chain: MCIGMDIRDFFAQSAGRWFSQRTSHHLAFKQTESGKSQLTIELLSVDDPAVIALCQQYDMDPAWAVCGARVSWDGTMEWDNEKHEGSTVLVPIMDQGSRMEGKLLREMGYAEKAPVAGRFSMGSDGALTLITEYETIYSEERLWFASPNLRLRTSILKRFGGFSMASFCSEIRLGVTQPANS
modifications: selenomethionine-labeled in the sample that was crystallized
stoichiometry N: 2

— paper PMC3932240 (Biochemistry, 2013)
